From paper PMC10892425

Columns and labels:
[1] = test system: VV-GMCSF-Lact intact vaccinia virus particles (surface protein target not identified) (Vaccinia virus, LIVP strain (recombinant VV-GMCSF-Lact)); test: flow cytometry
[2] = test system: VV-GMCSF-Lact intact vaccinia virus particles (surface protein target not identified) (Vaccinia virus, LIVP strain (recombinant VV-GMCSF-Lact)); test: MST

GTAACCAGCCATCACCCTATTATCTCATTATCTCGTTTTCCCTATGCGGCATAGG [NV14t_56 (8NV37_14 variant 2_12-67)]
Kd [1]: 353 nM | K half [2]: 1.49e+09 PFU/mL
